A short description of this series: soluble on expression in E. coli; label from the status in PepcDB or PDB records.
In the case of “MGSDKIHHHHHHMINQERLVNEFMELVQVDSETKFEAEICKVLTKKFTDLGVEVFEDDTMAVTGHGAGNLICTLPATKDGVDTIYFTSHMDTVVPGNGIKPSIKDGYIVSDGTTILGADDKAGLASMFEAIRVLKEKNIPHGTIEFIITVGEESGLVGAKALDRERITAKYGYALDSDGKVGEIVVAAPTQAKVNAIIRGKTAHAGVAPEKGVSAITIAAKAIAKMPLGRIDSETTANIGRFEGGTQTNIVCDHVQIFAEARSLINEKMEAQVAKMKEAFETTAKEMGGHADVEVNVMYPGFKFADGDHVVEVAKRAAEKIGRTPSLHQSGGGSDANVIAGHGIPTVNLAVGYEEIHTTNEKIPVEELAKTAELVVAIIEEVAK”, the “soluble on expression in E. coli” value is reported as “not soluble”. Consider “MTPEQAHARARATGPLPLGAGEPAPRGMVRLAHGDGTGLALQVWPDGATPSLLEEYQVAPVNVERSGETRRVLAAALKCCWTDLGADPWPGAPAPVEDVLSAYRALIGRGDDLMRNWAIGALRRLHDSAWLEVEDGVVRLGPRCACWPSESHAQLRELMRRLPTGDEGLTGLEVLPADGRAPAETAASVAPPEDVDEDLLGPFDERRRAEIVAAFIAVEHAAEPVHEARLPALRDPVLRRALAEMLQRRGRVLIQDREAWTSGYAPEVTAVTGTTVGEAERAVLVLVLIHSVAIPRADGLLPADSWLSPFPAQVEELRRHTRLPIGELEAALRTLRHAGLVTQVKAGEEAGGYTPGPQFHRLTPQARRGLQEELILAAGPHTPLAAAVRANRR”, for which the “soluble on expression in E. coli” value was “not soluble”. The entry for “MNHKVHHHHHHIEGRHMKVLILGAGNIGRAIAWDLKDEFDVYIGDVNNENLEKVKEFATPLKVDASNFDKLVEVMKEFELVIGALPGFLGFKSIKAAIKSKVDMVDVSFMPENPLELRDEAEKAQVTIVFDAGFAPGLSNILMGRIFQELDLKEGYIYVGGLPKDPKPPLYYKITWSPRDLIEEYTRPARVIRNGKVSKVDPLSEVKKVKIGKFEFEAFISDGLRSMLETINSERLEEWTLRWPGHLEKIKVLRELGFFKPENLDFTLRVIEPLMRYETKDFSIMKVVGKGEEGEMEFFLYDEEDSMFSSMSRVTGFTAAIISRIVAENTCTFGVIPPEILGMREDTFRRIIDELKERGISIEGT” is “soluble”; for “MAWSRVGDNIATHPLMSRLLTSCEFDHSLKNEAFGALVQLTTVSAAHLTDYIIEYGLMAQIAPGREKQLIDVLVDAGMLFRDEVDGRKVLRIVDDNELLHNRSRDEVEIDRRRAADKRNPALIPAVRYRDGDQCRWCGRTVDWRDRKGGRAATIDSLNEHRESTVDTLVVACKSCNSKRGAGEELQLLPTPTREKVHYTDHTIDWINRSEWAQHEGIHLEPRQTHLDIGQQITTPAAPSEQQQVGQAAAPLEAAARAHRAAPDVEAPFVSDPLDEAPDWVKQSLVNDHGQAAAPLMAAAPREHDHAPAAPSEQQQVGQAAAPLEAAARAHRAAPDVEAPPQHHVDNETVKPSTDLEQITDRWGDGSRSLGTGRDGNGQVGTARRRRRRRRGGRGTGRNKAHG” it is “not soluble”. “MITDLILHNHPRMKTITLNDNHIAHLNAKNTTKLEYLNLSNNNLLPTNDIDQLISSKHLWHVLVNGINNDPLAQMQYWTAVRNIIDDTNEVTIDLSGLNLTTQPPGLQNFTSINLDNNQFTHFDATNYDRLVKLSLNSNALESINFPQGRNVSITHISMNNNALRNIDIDRLSSVTYFSAAHNQLEFVQLESCEWLQYLNLSHNQLTDIVAGNKNELLLLDLSHNKLTSLHNDLFPNLNTLLINNNLLSEIKIFYSNFCNVQTLNAANNQLKYINLDFLTYLPSIKSLRLDNNKITHIDTNNTSDIGTLFPIIKQSKTLEHHHHHH”: the “soluble on expression in E. coli” value is on record as “not soluble”.

Consider “MMQFEVKDLINKIKKDGLEEAERASNDIILKAKREAEEIVARAEEAARVLKAKSEKEANDYKCHALEASRQAIRDLIIGVEKNLKSLFENALKDNVTEVLSDNNFLAELIIKITDSWAKGEKLVIQLNESDFSSLEQILRLKLGNKLKEGMELRPFRGISKGFKIQKKNIGLHYDFSAETIADILFDYLNPRFKEVIKVV”, for which the “soluble on expression in E. coli” value is “not soluble”.

Regarding “MSDAPTVVAYLGPAGTFTEEALYKFADAGVFGDGEIEQLPAKSPQEAVDAVRHGTAQFAVVAIENFVDGPVTPTFDALDQGSNVQIIAEEELDIAFSIMVRPGTSLADVKTLATHPVGYQQVKNWMATTIPDAMYLSASSNGAGAQMVAEGTADAAAAPSRAAELFGLERLVDDVADVRGARTRFVAVQAQAAVSEPTGHDRTSVIFSLPNVPGSLVRALNEFAIRGVDLTRIESRPTRKVFGTYRFHLDISGHIRDIPVAEALRALHLQAEELVFVGSWPSNRAEDSTPQTDQLAKLHKADEWVRAASEGRKLN”, the “soluble on expression in E. coli” value is given as “soluble”. As for “STEESMYTQIIKELPREGSSDVLVIKNEHVKKSDIWPSGGEMVVKDLTVKYMDDGNAVLENISFSISPGQRVGLLGRTGSGKSTLLSAFLRMLNIKGDIEIDGVSWNSVTLQEWRKAFGVITQKVFIFSGTFRQNLDPNGKWKDEEIWKVADEVGLKSVIEQFPGQLNFTLVDGGYVLSHGHKQLMCLARSVLSKAKIILLDQPSAHLDPITYQVIRRVLKQAFAGCTVILCEHRIEAMLDCQRFLVIEESNVWQYDSLQALLSEKSIFQQAISSSEKMRFFQGRHSSKHKPRTQITALKEETEEEVQETRL”, the “soluble on expression in E. coli” value is listed as “not soluble”. Regarding “FEPMMQRDKIMQNLSYISDVNVLPDWMTVSQLLSYTEGVHPGFNRSKADALLRQTDIKPRAKIRALSKGMKVQLHLAIVIATNTQILILDEPTLGLDLVYRDTFYRHLLEWFHDGERVLIITSHEVSEIEHLLTDVLILKHGRPVLQTSMESISEDYFILDANDEHRAQIEAMHPLSSQKGLGTTKWLLSSQYADQAAGLGDVHGVKLADLFLALQKEAA”, the “soluble on expression in E. coli” value was “not soluble”. “KCPRCGKSVYAAEKVMGGGKPWHKTCFRCAICGKSLESTNVTDKDGELYCKVCYAKNF”: the “soluble on expression in E. coli” value is “soluble”. For “MITKLDIQEKDGFLTMKDFPMNCIFNKVKTGCGATTIALTNNENYIITVPTTELIENKCYPTKDADGNVKFWKKHERRAGLSPVVNNLFGLYGNFTLELKKKLKDYLSSVGVKKIICTYDKIDKLMEFINPKDFKLTIDEYHNFLKQYSFRDKAINGVLAHFKEFKSYCFLSATPIPNNLKPAIFNDIPEYIADWNTTDDITVYPYHTDKPYMVAAKFIKTYQAKGCLNVNGIESKEAYFFINSVTEIKAILKQTQLTEDDYRIICADNPKNRRTLEEYTISSSADAPKKFNFITSKSFEGVDFHSETGLCFVVSNVQNRHTLVSIDMDIPQIVGRIRTKSNPFRNKVVHIFNTKATDHYTTFEEMEQIVDKEVKAAQERADMLNNTKLSEAATKQQINEIKKVGIESYLSYQENKFVVNDMVAKLQLYSYYIATVVYQSDKSLRETYAQSGIVTTKGKWHIAPEKFVKELIVKPTFRELHKRYCEIKANPMTFDLQTIDIEHEYPILGRAYRQLGVKELKRLRTIKSIQEALGEA”, the “soluble on expression in E. coli” value is on record as “not soluble”. For “DDLPYRFGLGKADITGEAAEVGMMGYSSLEQKTAGIHMRQWARAFVIEEAASGRRLVYVNTDLGMIFQAVHLKVLARLKAKYPGVYDENNVMLAATHTHSGPGGFSHYAMYNLSVLGFQEKTFNAIVDGIVRSIERAQARLQPGRLFYGSGELRNASRNRSLLSHLKNPDIAGYEDGIDPQMSVLSFVDANGELAGAISWFPVHSTSMTNANHLISPDNKGYASYHWEHDVSRKSGFVAAFAQTNAGNLSPNLNLKPGSGPFDNEFDNTREIGLRQFAKAYEIAGQAQEEVLGELDSRFRFVDFTRLPIRPEFTDGQPRQLCTAAIGTSLAAGSTEDGPGPLGLEEGNNPFLSALGGLLTGVPPQELVQCQAEKTILADTGNKKPYPWTPTVLPIQMFRIGQLELLGAPAEFTVMAGVRIRRAVQAASEAAGIRHVVFNGYANAYASYVTTREEYAAQEYEGGSTLYGPWTQAAYQQLFVDMAVALRERLPVETSAIAPDLSCCQMNFQTGVVADDPYIGKSFGDVLQQPRESYRIGDKVTVAFVTGHPKNDLRTEKTFLEVVNIGKDGKQTPVTVATDNDWDTQYRWERVGISASKATISWSIPPGTEPGHYYIRHYGNAKNFWTQKISEIGGSTRSFEVLGTTP”, the “soluble on expression in E. coli” value is listed as “soluble”. With “MLPKRNSGDNELYTNREKRKKMTSYIADSAVFIMGNCGVDSSLLITVPSVADELKSRDSMLRFDLAKEEGLRVEWPEPEMVKEVRKKAEQTRDSEELSKTDLEILAKALEHRETAVLLTDDYAVQNVAVQLGIQVKPIAQKKIKDVLIWQKQCTGCKKTFDKGDECPICGSPLKKKRKRKLKGKGYRESLEHHHHHH”, the “soluble on expression in E. coli” value is reported as “not soluble”. The entry for “MHFHVNNVVTSSQIDDVLVKICTGPLFDNGTPFITYGCVLHLSSERGIIRTFDEKLCLFELKDLNMDGVVDMTDVLPLGCTLKFFATRQNHHTFTASNVSPICEPAAQLIFLNSTEMNVITPDFTSTGSSNHYSVEKERFAYVRILELFQQQAVLSLPLSSMISELGKFGEDDVSQYIGISDEERGMFIKRRTHLFTVGWNDLVTLQSPDFYQAIVLILSYILCNGGVTSTENVFEFYQTDNVPLSVRQRTGSDMNSFREIIDFHSWAFTLSSHGTYVSAKRNLPHFDYMSFFEGIVCTATPQRHQKSKLLKHPPGLQIPLLNTRAQALGQASMHQQQQEHISNPYQGYQPYLHREDMTNGMKKPTGTLIDGANQKHCFGMQVSSPDRNAFEKPSVFGHTWGDVIAFNKNSANFSRGMQSKRRYNLSSMFRNLKYSGFRSSIDSTSSSDDSQSLDNCSTSGVNNMLIGCGPQMY” is “not soluble”; for “MIAHSVDDPFYYLHNFRQVVLWVEQRYQDLLDDQELAFIRAFSQLQAPAQALMVRMVMRKGELFRSDRLDYAEIGDTALALQPLLALGWVREPEQLDLEQLFALLRKEELARCFARQLNRPRAAKHELLAQLQPLALAARSLVEWFPDSDVRILQWCLQPLCDRIRLLFFGNLYQDWSDFVLADLGLLRYEQVPFSPDSRALQQRDDVDLAMALHHCAERLEQGGDPLPILATLQGLHSSNPWLARRHARLQFAVGQQCERLGEWDLATAVYAQCNHPQARIRQVRVLERSEQWHQAHARALQLAAAPANALEEQALQRMLPRLARKLGGPPQRRQRTTPLELIELELPRGDAALGVEEAVRQHLMQEGGQAHYVENTLFNSLFGLLCWEAIFAPVPGAFFNPFQAAPQDLHDSDFQQRRSALFERCLGRLDEGSHRQAILDCYVAKQGLQSPFVSWSMLSEELLEQALACLPAAALKQCFLRLLQDIRSNRAGMPDLIQFWPEQGRYRMVEVKGPGDRLQDNQLRWLAFCRQHGLPVAVCHVRWSET” it is “not soluble”; for “MGSDKIHHHHHHMVKLLLICLATIVMISCGSEQEKLTVYIPDTCTDTLQYEIYLPEEEGLNIFYDLCVTDSFCAFLDTRNDTLLKIFTATIPPALVGLGMKGEGPDDFLFPFFEKSIGREGKGKLSFIELNSWNKKIVAIHSAASPAPVAVSVVEAQQLPEMPVVRDYNETDSCVYGIDVDMQHGLFFIYDKHTARVKTVDYHRDIRSGYPEGHLSYLYESCLMVNQDAKAACMGLLNLNSLCFYDLKGNLMKEIVIGKELKSPEYDPEFLDFPNAPKYFISLCGTPNYLYALYNGFPGTSGKSKIMVFTWQGAPVAIYQTDVKLERIAVAPSGRYVLGLNITEEGGSDVLKFEL” it is “not soluble”. For “QSKDGSVRHSGDNRTGQGDGDDETITVDLTRLPAAVTTVIFSVNNYTGQDFGQVENAYCRLVNTQGGQEIARYNLSVQGNHSAMILASLKRQGGDWAMTAIGAPSR”, the “soluble on expression in E. coli” value was “not soluble”. Take “MSAEASGPAAAAAPSLEAPKPSGLEPGPAAYGLKPLTPNSKYVKLNVGGSLHYTTLRTLTGQDTMLKAMFSGRVEVLTDAGGWVLIDRSGRHFGTILNYLRDGSVPLPESTRELGELLGEARYYLVQGLIEDCQLALQQKRETLSPLCLIPMVTSPREEQQLLASTSKPVVKLLHNRSNNKYSYTSTSDDNLLKNIELFDKLALRFHGRLLFLKDVLGDEICCWSFYGQGRKIAEVCCTSIVYATEKKQTKVEFPEARIFEETLNILIYETPRGPDPALLEATGGAAGAGGAGRGEDEENREHRVRRIHVRRHITHDERPHGQQIVFKD”: the “soluble on expression in E. coli” value is on record as “soluble”.

The values are drawn from the DeepSol protein solubility set.
